Source: patent publication US20110020361A1

Target: cell surface-associated mesothelin (UniProt Q13421)
Experiment: flow cytometry titration of IgG1 m912 on H9 cells, medium fluorescent units

50% binding: 5 to 10 nM
Substance: IgG1 m912 (antibody)
